# From the supplement of paper PMC10126150
# ± gives the standard deviation of the averaged measurements.
# System: ATP
# Assay: switch fluorescence ratio, 500 uM ATP over buffer (Cy3 cluster intensity, sum of 5 cycles each) (fold (ratio)); higher = stronger signal-on switching upon ATP binding; sequences stand for … in TCGTCGGCAGCGTCAGATGTGTATAAGAGACAGTTTTTTTTTTTTTTTTTTTTTTTTT…TC
# Details: aptamer strand: ATP DNA aptamer (quencher-CACCTGGGGGAGTATTGCGGAGGAAGG + anchor), 100 nM annealed; ATP concentration: 500 uM
# In short: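 Between each of five buffer/ATP cycles, the flow-cell was stripped with NaOH and re-annealed. Each cycle imaged Cy3-labelled switching-strand clusters, annealed to 100 nM quencher-labelled ATP aptamer on a modified Illumina MiSeq flow-cell, first in selection buffer and then after 15 min with 500 uM ATP at 22 °C. The fluorescence ratio is summed target-cycle over summed buffer-cycle Cy3 intensity per cluster, averaged per switch-domain sequence, with clusters outside 100-1000 RFU excluded.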
# 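Further: ATP exposure 15 min at 22 °C before imaging.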
row,Sequence,switch fluorescence ratio
1,AATGGCATTA,0.984 ± 0.03
2,AATGGCATTC,1.03 ± 0.038
3,AATGGGAATG,1.013 ± 0.0052
4,AATGGGCCGG,1.013 ± 0.0076
5,AATGGGCGAG,1.08 ± 0.18
6,AATGGGCTGA,0.971 ± 0.015
7,AATGGGGCAA,1.058 ± 0.0077
8,AATGGGGGAA,0.9881 ± 0.0087
9,AATGGGGGGT,1.02 ± 0.053
10,AATGGGGGTG,1.02 ± 0.032
11,AATGGGTAGT,0.991 ± 0.042
12,AATGGGTCAT,1.004 ± 0.0013
13,AATGGTATGT,1.032 ± 0.0088
14,AATGGTTGGG,0.9989 ± 0.0078
15,AATGTAAATA,1.01 ± 0.018
16,AATGTACCCA,1.09 ± 0.017
17,AATGTAGACG,0.997 ± 0.13
18,AATGTATCGT,0.978 ± 0.021
19,AATGTATGTT,1.032 ± 0.0074
20,AATGTCGAAA,0.998 ± 0.018
21,AATGTCGACC,1.026 ± 0.0022
22,AATGTGCCTT,1.056 ± 0.0057
23,AATGTGGATA,0.984 ± 0.028
24,AATGTTAAAT,0.979 ± 0.02
25,AATGTTCAAA,0.995 ± 0.023

row,Sequence,switch fluorescence ratio
1,AATGTTTTGA,0.995 ± 0.016
2,AATGTTTTGG,0.9952 ± 0.0081
3,AATTAAAAAG,0.975 ± 0.023
4,AATTAAACGA,1.036 ± 0.0068
5,AATTAAGGAT,0.975 ± 0.032
6,AATTAAGGTT,1.04 ± 0.03
7,AATTACGATT,1.04 ± 0.034
8,AATTAGATTC,0.994 ± 0.055
9,AATTAGGGTA,1.03 ± 0.012
10,AATTAGGTTG,0.967 ± 0.025
11,AATTATACCC,1.03 ± 0.029
12,AATTATTTT,0.993 ± 0.02
13,AATTCAAAAA,1.02 ± 0.021
14,AATTCACGTT,1.17 ± 0.19
15,AATTCCGATG,1.29 ± 0.076
16,AATTCCGGGT,1.02 ± 0.031
17,AATTCCTGGT,1.04 ± 0.023
18,AATTCGACGT,0.9963 ± 0.0091
19,AATTCGCAGT,1.17 ± 0.23
20,AATTCGTCG,0.9557 ± 0.0045
21,AATTCGTGCG,0.9872 ± 0.0086
22,AATTCGTTAC,1.63 ± 0.76
23,AATTCGTTGG,0.993 ± 0.026
24,AATTCTTGGG,0.981 ± 0.018
25,AATTGAAACA,0.9731 ± 0.0068

row,Sequence,switch fluorescence ratio
1,AATTGAAGGC,0.972 ± 0.022
2,AATTGACCGA,1.05 ± 0.013
3,AATTGATAAA,0.984 ± 0.042
4,AATTGATGTT,0.972 ± 0.025
5,AATTGATTGG,0.983 ± 0.032
6,AATTGCGGCC,0.979 ± 0.045
7,AATTGCTACC,1.07 ± 0.013
8,AATTGGAAGG,0.993 ± 0.012
9,AATTGGACTA,0.976 ± 0.063
10,AATTGGAGGA,0.996 ± 0.033
11,AATTGGATCG,1.016 ± 0.0018
12,AATTGGGCAG,0.9971 ± 0.0038
13,AATTGGGCTA,0.9994 ± 0.0056
14,AATTGGGCTT,1.02 ± 0.043
15,AATTGGGTAA,1.025 ± 0.0083
16,AATTGGGTTT,0.99 ± 0.023
17,AATTGGTTAG,0.984 ± 0.054
18,AATTGTATAG,0.9913 ± 0.0062
19,AATTGTGCCT,1.08 ± 0.055
20,AATTGTGGAG,0.966 ± 0.023
21,AATTGTGTTG,0.98 ± 0.031
22,AATTGTTGGT,1.01 ± 0.036
23,AATTTAGAGT,1 ± 0.012
24,AATTTCACGG,1.03 ± 0.066
25,AATTTCCGAG,1.17 ± 0.037

row,Sequence,switch fluorescence ratio
1,AATTTCCTTT,0.988 ± 0.036
2,AATTTCGGGA,1.01 ± 0.044
3,AATTTCGGGT,0.9877 ± 0.0096
4,AATTTGAAAG,1.017 ± 0.01
5,AATTTGAGGA,0.972 ± 0.02
6,AATTTGAGTG,0.977 ± 0.032
7,AATTTGCGAC,1.05 ± 0.011
8,AATTTGGACT,1.03 ± 0.027
9,AATTTGGCCC,1.01 ± 0.031
10,AATTTGGGTT,1.04 ± 0.053
11,AATTTGGTAT,1.04 ± 0.011
12,AATTTGTATT,0.997 ± 0.011
13,AATTTGTTAG,0.985 ± 0.018
14,AATTTGTTCT,0.999 ± 0.025
15,AATTTGTTTC,0.972 ± 0.021
16,AATTTTAATG,0.997 ± 0.022
17,AATTTTATCT,0.99 ± 0.014
18,AATTTTGTTA,0.976 ± 0.043
19,AATTTTTAGA,0.987 ± 0.034
20,AATTTTTGTA,0.984 ± 0.018
21,AATTTTTTCA,0.99 ± 0.018
22,AATTTTTTCG,0.992 ± 0.025
23,ACAAACTGGT,1 ± 0.019
24,ACAAAGAGTC,0.9932 ± 0.0083
25,ACAAAGGTGT,1.29 ± 0.015

row,Sequence,switch fluorescence ratio
1,ACAACGCTTG,1.01 ± 0.032
2,ACAAGATGGG,1.09 ± 0.082
3,ACAAGGGGGA,1.02 ± 0.013
4,ACAAGGTGAT,1.15 ± 0.024
5,ACAAGTATCA,0.9853 ± 0.0074
6,ACAATCCGGG,1.01 ± 0.032
7,ACAATCGGAA,1.025 ± 0.0014
8,ACAATTGCTA,0.994 ± 0.03
9,ACACAAGGTC,1.03 ± 0.041
10,ACACAATCAT,1.02 ± 0.011
11,ACACATGTAT,1 ± 0.045
12,ACACCATTAA,1.02 ± 0.03
13,ACACCCGGCC,1.28 ± 0.068
14,ACACCCTTAT,1.127 ± 0.011
15,ACACCGGGGG,1.13 ± 0.17
16,ACACGGGGGG,1.04 ± 0.022
17,ACACGGTGAT,1.056 ± 0.0056
18,ACACGGTGGG,0.975 ± 0.054
19,ACACGTGCTA,1.01 ± 0.024
20,ACACGTTACA,1.62 ± 0.082
21,ACACTCGTCT,1.009 ± 0.0051
22,ACACTGCCGG,1.04 ± 0.026
23,ACACTGTATC,1.21 ± 0.038
24,ACACTTGAAT,0.996 ± 0.027
25,ACACTTGCGC,1.02 ± 0.038

row,Sequence,switch fluorescence ratio
1,ACACTTGTTG,0.963 ± 0.028
2,ACAGAAGATG,1.003 ± 0.0087
3,ACAGAAGCTT,1.03 ± 0.015
4,ACAGAAGTCT,1.03 ± 0.096
5,ACAGCGGGGT,1 ± 0.021
6,ACAGGACGGA,1.03 ± 0.013
7,ACAGGAGAAA,1.01 ± 0.019
8,ACAGGAGGAG,0.9859 ± 3.2e-05
9,ACAGGATTGG,1.01 ± 0.017
10,ACAGGCGTCA,1.02 ± 0.024
11,ACAGGGAAAG,1.04 ± 0.034
12,ACAGGGCCGT,1.03 ± 0.033
13,ACAGGGTAGC,1 ± 0.015
14,ACAGGGTTTC,0.985 ± 0.015
15,ACAGGTAAA,1.02 ± 0.028
16,ACAGGTAGCT,1.06 ± 0.056
17,ACAGGTAGGT,1 ± 0.055
18,ACAGGTTGGA,1.03 ± 0.023
19,ACAGTAGTTA,1.046 ± 0.0065
20,ACAGTGTGGG,1.05 ± 0.018
21,ACAGTTAGGT,0.992 ± 0.034
22,ACAGTTCTAC,1.03 ± 0.031
23,ACAGTTGGGC,0.9946 ± 0.004
24,ACATAATGCC,0.933 ± 0.047
25,ACATACAATT,1.23 ± 0.091

row,Sequence,switch fluorescence ratio
1,ACATACTGCA,1.29 ± 0.14
2,ACATAGATTA,1.03 ± 0.016
3,ACATATAGGG,1.04 ± 0.021
4,ACATATTACT,1.13 ± 0.0066
5,ACATCAAAAT,1.001 ± 0.0015
6,ACATCACTAA,1.306 ± 0.0079
7,ACATCAGCGG,0.958 ± 0.031
8,ACATCCTTCG,1.7 ± 0.25
9,ACATCGGGTG,1.42 ± 0.59
10,ACATGAAGGT,1.006 ± 0.0035
11,ACATGCAAGC,1.64 ± 0.12
12,ACATGCATTA,1.02 ± 0.026
13,ACATGCGCGG,0.9999 ± 0.0079
14,ACATGCGGGG,1.019 ± 0.01
15,ACATGCTCCC,1.73 ± 0.13
16,ACATGGTTTT,1.01 ± 0.017
17,ACATGTTAGT,1.006 ± 0.0028
18,ACATGTTATA,1 ± 0.049
19,ACATTAAGTA,1.02 ± 0.037
20,ACATTAGGGT,1.01 ± 0.012
21,ACATTATAAT,1.041 ± 0.0056
22,ACATTCCAAA,1.03 ± 0.013
23,ACATTCGCGC,1.148 ± 0.0066
24,ACATTCGGGC,1.02 ± 0.041
25,ACATTGAAAA,0.996 ± 0.036

row,Sequence,switch fluorescence ratio
1,ACATTGGCGA,0.988 ± 0.044
2,ACATTTAATT,0.983 ± 0.013
3,ACATTTAGGC,1.048 ± 0.0088
4,ACATTTGCAG,1.02 ± 0.033
5,ACATTTTGCG,0.99926 ± 0.00068
6,ACATTTTGTT,0.972 ± 0.051
7,ACCAACTCAA,1.18 ± 0.037
8,ACCAAGAGCG,1.05 ± 0.023
9,ACCAAGGGCT,0.996 ± 0.034
10,ACCAAGGGTG,1.135 ± 0.0042
11,ACCAATAAAC,1.09 ± 0.033
12,ACCAATCCTG,1 ± 0.013
13,ACCAATCGGG,0.9917 ± 0.002
14,ACCACAGAGC,1.04 ± 0.051
15,ACCACGGTGT,2.12 ± 0.075
16,ACCACTAAAA,1.04 ± 0.019
17,ACCAGGGGGT,1.05 ± 0.09
18,ACCAGGTATG,1.12 ± 0.016
19,ACCATAGGCT,1.01 ± 0.055
20,ACCATCGGGA,1.01 ± 0.016
21,ACCATGCCGG,1 ± 0.077
22,ACCATGGGAT,1.02 ± 0.015
23,ACCATGGGCC,1.01 ± 0.018
24,ACCATGTAAG,0.988 ± 0.035
25,ACCATTAAAA,1.004 ± 0.0029
